Reference: IntAct's records for PubMed 31515488

B1: Dynein light chain 2, cytoplasmic (Homo sapiens), Q96FJ2 (parent)
chain: MSDRKAVIKNADMSEDMQQDAVDCATQAMEKYNIEKDIAAYIKKEFDKKYNPTWHCIVGRNFGSYVTHETKHFIYFYLGQVAILLFKSG
partner: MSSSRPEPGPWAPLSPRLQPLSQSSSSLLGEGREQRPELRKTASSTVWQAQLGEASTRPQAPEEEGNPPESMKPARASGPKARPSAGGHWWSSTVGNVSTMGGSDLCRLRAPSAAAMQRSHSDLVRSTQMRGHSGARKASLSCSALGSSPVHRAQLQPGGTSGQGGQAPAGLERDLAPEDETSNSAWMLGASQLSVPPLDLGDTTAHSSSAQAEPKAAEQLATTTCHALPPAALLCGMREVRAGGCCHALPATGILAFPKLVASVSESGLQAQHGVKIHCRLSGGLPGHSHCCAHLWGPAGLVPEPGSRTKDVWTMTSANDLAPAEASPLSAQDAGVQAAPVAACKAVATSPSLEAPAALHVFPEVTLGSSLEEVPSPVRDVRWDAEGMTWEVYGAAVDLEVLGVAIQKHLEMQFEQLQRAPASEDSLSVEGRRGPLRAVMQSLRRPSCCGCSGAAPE
B2: Notch homolog 2 N-terminal-like protein A (Homo sapiens), Q7Z3S9 (parent)
chain: MCVTYHNGTGYCKCPEGFLGEYCQHRDPCEKNRCQNGGTCVAQAMLGKATCRCASGFTGEDCQYSTSHPCFVSRPCLNGGTCHMLSRDTYECTCQVGFTGKECQWTDACLSHPCANGSTCTTVANQFSCKCLTGFTGQKCETDVNECDIPGHCQHGGTCLNLPGSYQCQCLQGFTGQYCDSLYVPCAPSPCVNGGTCRQTGDFTFECNCLPETVRRGTELWERDREVWNGKEHDEN
partner: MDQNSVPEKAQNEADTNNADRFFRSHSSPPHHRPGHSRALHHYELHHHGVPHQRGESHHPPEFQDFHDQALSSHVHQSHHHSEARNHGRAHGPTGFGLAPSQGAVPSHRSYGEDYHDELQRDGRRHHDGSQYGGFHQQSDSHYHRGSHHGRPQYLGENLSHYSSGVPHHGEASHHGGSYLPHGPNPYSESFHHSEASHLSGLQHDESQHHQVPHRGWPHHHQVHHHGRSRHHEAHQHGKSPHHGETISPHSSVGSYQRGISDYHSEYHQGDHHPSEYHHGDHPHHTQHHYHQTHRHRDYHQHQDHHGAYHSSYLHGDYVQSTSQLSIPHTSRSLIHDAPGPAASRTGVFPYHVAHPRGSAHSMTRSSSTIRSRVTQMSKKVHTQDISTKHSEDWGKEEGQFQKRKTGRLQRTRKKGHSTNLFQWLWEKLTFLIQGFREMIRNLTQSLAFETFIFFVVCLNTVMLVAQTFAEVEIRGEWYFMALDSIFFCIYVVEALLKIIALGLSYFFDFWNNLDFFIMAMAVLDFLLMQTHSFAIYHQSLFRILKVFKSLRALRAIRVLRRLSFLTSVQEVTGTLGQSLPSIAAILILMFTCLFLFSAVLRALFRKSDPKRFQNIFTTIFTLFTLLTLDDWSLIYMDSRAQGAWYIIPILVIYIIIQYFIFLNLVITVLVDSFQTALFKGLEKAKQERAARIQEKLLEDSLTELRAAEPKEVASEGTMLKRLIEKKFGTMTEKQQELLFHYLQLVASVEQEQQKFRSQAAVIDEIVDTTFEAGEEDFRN
B3: E3 ubiquitin-protein ligase TRIM17 (Homo sapiens), Q9Y577 (parent)
chain: MEAVELARKLQEEATCSICLDYFTDPVMTTCGHNFCRACIQLSWEKARGKKGRRKRKGSFPCPECREMSPQRNLLPNRLLTKVAEMAQQHPGLQKQDLCQEHHEPLKLFCQKDQSPICVVCRESREHRLHRVLPAEEAVQGYKLKLEEDMEYLREQITRTGNLQAREEQSLAEWQGKVKERRERIVLEFEKMNLYLVEEEQRLLQALETEEEETASRLRESVACLDRQGHSLELLLLQLEERSTQGPLQMLQDMKEPLSRKNNVSVQCPEVAPPTRPRTVCRVPGQIEVLRGFLEDVVPDATSAYPYLLLYESRQRRYLGSSPEGSGFCSKDRFVAYPCAVGQTAFSSGRHYWEVGMNITGDALWALGVCRDNVSRKDRVPKCPENGFWVVQLSKGTKYLSTFSALTPVMLMEPPSHMGIFLDFEAGEVSFYSVSDGSHLHTYSQATFPGPLQPFFCLGAPKSGQMVISTVTMWVKG
partner: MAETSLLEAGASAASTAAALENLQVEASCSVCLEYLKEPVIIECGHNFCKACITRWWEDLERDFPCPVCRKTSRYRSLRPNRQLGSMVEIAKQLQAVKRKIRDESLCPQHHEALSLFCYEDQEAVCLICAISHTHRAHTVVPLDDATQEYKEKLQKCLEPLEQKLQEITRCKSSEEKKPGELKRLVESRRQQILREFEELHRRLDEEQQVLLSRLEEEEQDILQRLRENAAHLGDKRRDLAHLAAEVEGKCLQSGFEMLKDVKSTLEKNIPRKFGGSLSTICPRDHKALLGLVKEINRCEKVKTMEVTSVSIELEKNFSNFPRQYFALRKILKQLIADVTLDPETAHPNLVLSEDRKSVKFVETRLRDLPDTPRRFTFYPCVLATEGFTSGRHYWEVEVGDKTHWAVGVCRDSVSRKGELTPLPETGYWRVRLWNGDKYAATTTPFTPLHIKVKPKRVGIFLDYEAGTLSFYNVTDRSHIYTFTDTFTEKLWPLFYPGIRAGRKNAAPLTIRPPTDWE
B4: Retinoic acid receptor beta (Homo sapiens), P10826-2 (parent)
chain: MFDCMDVLSVSPGQILDFYTASPSSCMLQEKALKACFSGLTQTEWQHRHTAQSIETQSTSSEELVPSPPSPLPPPRVYKPCFVCQDKSSGYHYGVSACEGCKGFFRRSIQKNMIYTCHRDKNCVINKVTRNRCQYCRLQKCFEVGMSKESVRNDRNKKKKETSKQECTESYEMTAELDDLTEKIRKAHQETFPSLCQLGKYTTNSSADHRVRLDLGLWDKFSELATKCIIKIVEFAKRLPGFTGLTIADQITLLKAACLDILILRICTRYTPEQDTMTFSDGLTLNRTQMHNAGFGPLTDLVFTFANQLLPLEMDDTETGLLSAICLICGDRQDLEEPTKVDKLQEPLLEALKIYIRKRRPSKPHMFPKILMKITDLRSISAKGAERVITLKMEIPGSMPPLIQEMLENSEGHEPLTPSSSGNTAEHSPSISPSSVENSGVSQSPLVQ
partner: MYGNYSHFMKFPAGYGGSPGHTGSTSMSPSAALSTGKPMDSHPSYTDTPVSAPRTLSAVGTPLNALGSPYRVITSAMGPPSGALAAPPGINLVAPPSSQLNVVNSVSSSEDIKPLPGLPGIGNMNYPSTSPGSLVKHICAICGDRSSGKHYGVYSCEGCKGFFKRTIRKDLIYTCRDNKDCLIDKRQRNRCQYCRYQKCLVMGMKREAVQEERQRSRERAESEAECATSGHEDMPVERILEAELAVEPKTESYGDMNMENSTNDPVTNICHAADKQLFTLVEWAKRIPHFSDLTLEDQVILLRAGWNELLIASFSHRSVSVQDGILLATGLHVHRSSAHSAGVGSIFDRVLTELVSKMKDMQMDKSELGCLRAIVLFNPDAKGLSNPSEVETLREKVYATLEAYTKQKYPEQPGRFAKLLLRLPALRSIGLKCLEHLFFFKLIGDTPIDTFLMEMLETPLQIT

Variants of: B1
Conditions: with grin2_human GPRIN2, O60269

Row | Variant | effect of a mutation on the interaction
1 | N33S | with no effect

Variants of: B2
Conditions: with ctsr1_human CATSPER1, Q8NEC5

Row | Variant | effect of a mutation on the interaction
2 | A115T | with no effect
3 | R74Q | with no effect

Variants of: B3
Conditions: with tri39_human TRIM39, Q9HCM9

Row | Variant | effect of a mutation on the interaction
4 | E173K | with no effect
5 | T30A | disrupting interaction strength

Variants of: B4
Conditions: with rxrg_human RXRG

Row | Variant | effect of a mutation on the interaction
6 | V83I | with no effect
